Data from the supplement of paper PMC7877785.
± gives the uncertainty stated by the source.

Assay: self-splicing fitness, log relative to wild type (ln ratio); higher = more splicing; Tetrahymena group I intron in knt gene, E. coli kanamycin selection, DiMSum; sequences stand for … in CUCUCU…GGAGGGAAAAGUUAUCAGGCAUGCACCUGGUAGCUAGUCUUUAAACCAAUAGAUUGCAUCGGUUUAAAAGGCAAGACCGUCAAAUUGCGGGAAAGGGGUCAACAGCCGUUCAGUACCAAGUCUCAGGGGAAACUUUGAGAUGGCCUUGCAAAGGGUAUGGUAAUAAGCUGACGGACAUGGUCCUAACCACGCAGCCAAGUCCUAAGUCAACAGAUCUUCUGUUGAUAUGGAUGCAGUUCACAGACUAAAUGUCGGUCGGGGAAGAUGUAUUCUUCUCAUAAGAUAUAGUCGGACCUCUCCUUAAUGGGAGCUAGCGGAUGAAGUGAUGCAACACUGGAGCCGCUGGGAACUAAUUUGUAUGCGAAAGUAUAUUGAUUAGUUUUGGAGUACUCGUGGUCG
In short: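 Colonies from six replicate transformations of E. coli BL21(DE3) were pooled and amplicon-sequenced on an Illumina HiSeq 2500. The library placed an intron with all eight P1ex-region nucleotides randomised inside the knt kanamycin-resistance gene on pET-22b(+), and cells grew overnight at 37°C or 30°C on LB agar with or without 25 μg/mL kanamycin (plus 100 μg/mL carbenicillin, 50 μM IPTG, 0.2% rhamnose). Fitness is the DiMSum error-weighted combination of wild-type-normalised replicate fold changes, kanamycin versus none.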

Sequence	self-splicing fitness (ln) (30 °C)	self-splicing fitness (ln) (37 °C)
GAGAAGCAAUAUUACGGAUG	-2.5 ± 0.14	-0.821 ± 0.13
GAGAAGCAAUAUUACGGCGC	0.341 ± 0.21	-0.241 ± 0.22
GAGAAGCAAUAUUACGGGAA	-2.47 ± 0.25	-1.24 ± 0.22
GAGAAGCAAUAUUACGGGAG	-2.12 ± 0.13	-1.63 ± 0.18
GAGAAGCAAUAUUACGGGGU	-3.06 ± 0.2	-3.13 ± 0.28
GAGAAGCAAUAUUACGGUCC	-2.14 ± 0.24	-1.06 ± 0.21
GAGAAGCAAUAUUACGGUUG	-2.18 ± 0.1	-1.99 ± 0.14
GAGAAGCAAUAUUACGUAAG	-2.72 ± 0.15	-1.1 ± 0.15
GAGAAGCAAUAUUACGUAUC	-3.78 ± 0.37	-3.21 ± 0.35
GAGAAGCAAUAUUACGUCAA	-1.82 ± 0.11	-0.98 ± 0.11
GAGAAGCAAUAUUACGUCAC	-3.6 ± 0.29	-0.67 ± 0.24
GAGAAGCAAUAUUACGUCAG	-3.34 ± 0.23	-1.35 ± 0.18
GAGAAGCAAUAUUACGUCUA	-0.555 ± 0.076	0.35 ± 0.092
GAGAAGCAAUAUUACGUGCG	-1.71 ± 0.093	-1.02 ± 0.1
GAGAAGCAAUAUUACGUUGG	-2.35 ± 0.15	-2.66 ± 0.21
GAGCAGCAAUAUUACGAACG	-2.53 ± 0.18	-0.673 ± 0.16
GAGCAGCAAUAUUACGAAGU	-2.87 ± 0.21	-0.867 ± 0.16
GAGCAGCAAUAUUACGAGCC	-0.545 ± 0.19	-0.285 ± 0.21
GAGCAGCAAUAUUACGAGGU	-4.1 ± 0.33	-1.65 ± 0.15

Sequence	self-splicing fitness (ln) (30 °C)	self-splicing fitness (ln) (37 °C)
GAGCAGCAAUAUUACGCAAC	-2.85 ± 0.28	-2.22 ± 0.45
GAGCAGCAAUAUUACGCAUU	-3.04 ± 0.2	-2.23 ± 0.24
GAGCAGCAAUAUUACGCCAU	-2.67 ± 0.46	-3.33 ± 0.43
GAGCAGCAAUAUUACGCCCA	-0.299 ± 0.18	0.255 ± 0.26
GAGCAGCAAUAUUACGCGGU	-3.17 ± 0.27	-0.69 ± 0.22
GAGCAGCAAUAUUACGCGUA	-0.655 ± 0.18	-0.959 ± 0.14
GAGCAGCAAUAUUACGCUCC	-2.25 ± 0.35	-0.34 ± 0.38
GAGCAGCAAUAUUACGGAAU	-3.37 ± 0.22	-2.08 ± 0.2
GAGCAGCAAUAUUACGGAGA	-4.02 ± 0.25	-2.16 ± 0.16
GAGCAGCAAUAUUACGGCAC	-0.575 ± 0.1	-0.126 ± 0.17
GAGCAGCAAUAUUACGGCGU	-0.163 ± 0.14	0.683 ± 0.18
GAGCAGCAAUAUUACGGUCA	-0.942 ± 0.11	-0.118 ± 0.11
GAGCAGCAAUAUUACGGUGC	-2.98 ± 0.18	-2.61 ± 0.18
GAGCAGCAAUAUUACGUAUC	-2.06 ± 0.087	-1.44 ± 0.091
GAGCAGCAAUAUUACGUGCU	-3.11 ± 0.2	-2.2 ± 0.23
GAGCAGCAAUAUUACGUGGG	-3.13 ± 0.24	-3.03 ± 0.27
GAGCAGCAAUAUUACGUGUG	-3.28 ± 0.12	-0.789 ± 0.11
GAGGAGCAAUAUUACGACAA	-2.14 ± 0.24	-1.1 ± 0.27
GAGGAGCAAUAUUACGAGCU		-1.77 ± 0.47
